{"source": "patent US20030170748A1", "about": "(IAMS, published 2003)", "key": {"canine PepT1 (cPepT1) [1]": {"biological_target": "T1, canine PepT1 (cPepT1) (canine, UniProt Q8WMX5 1-708)", "T1 sequence": "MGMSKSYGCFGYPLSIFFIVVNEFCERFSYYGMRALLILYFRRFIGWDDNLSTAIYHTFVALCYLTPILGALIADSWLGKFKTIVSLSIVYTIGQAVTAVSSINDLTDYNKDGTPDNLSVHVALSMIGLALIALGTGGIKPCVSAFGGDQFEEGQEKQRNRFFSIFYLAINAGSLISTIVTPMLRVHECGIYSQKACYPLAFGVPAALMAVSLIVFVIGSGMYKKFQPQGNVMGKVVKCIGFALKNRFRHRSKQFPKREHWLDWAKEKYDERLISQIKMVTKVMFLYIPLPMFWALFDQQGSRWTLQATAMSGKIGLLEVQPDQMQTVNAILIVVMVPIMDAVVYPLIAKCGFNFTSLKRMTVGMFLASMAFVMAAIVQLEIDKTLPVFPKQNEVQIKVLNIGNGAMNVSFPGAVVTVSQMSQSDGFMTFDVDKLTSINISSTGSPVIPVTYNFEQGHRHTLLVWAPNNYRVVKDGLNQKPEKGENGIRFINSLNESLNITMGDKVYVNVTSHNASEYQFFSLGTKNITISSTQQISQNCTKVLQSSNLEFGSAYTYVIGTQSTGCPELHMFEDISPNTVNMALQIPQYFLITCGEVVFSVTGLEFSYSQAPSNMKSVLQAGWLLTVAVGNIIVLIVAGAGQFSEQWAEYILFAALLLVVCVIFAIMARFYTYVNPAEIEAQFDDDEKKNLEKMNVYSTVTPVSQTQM", "test": "cell-based or functional assay"}, "canine PepT1 (cPepT1) [2]": {"biological_target": "T1, canine PepT1 (cPepT1)", "test": "inhibition of H+-dependent 100 µM [3H]GlySar uptake by MDCK cells; Ki by graphical analysis of IC50 experiments; competitor GlySar"}, "canine PepT1 (cPepT1) [3]": {"biological_target": "T1, canine PepT1 (cPepT1)", "test": "cell-based or functional assay", "remark": "listed apart in the source"}, "canine PepT1 (cPepT1) [4]": {"biological_target": "T1, canine PepT1 (cPepT1)", "test": "cell-based or functional assay", "remark": "listed apart in the source"}}, "note": "Where two headings read alike, the source gives them in different places. Square brackets hold non-standard residues; d marks the D form. Ends that are not written are not given here. βAla = NCCC(=O)O"}
{"molecule": "LeuMet (peptide)", "values": [{"measurement": "% inhibition of H+-dependent GlySar uptake (100 µM substrate, 100 µM GlySar, MDCK cells; Leu-containing peptides experiment)", "setting": "canine PepT1 (cPepT1) [1]", "result": 80, "unit": "%"}]}
{"molecule": "MetMet (peptide)", "values": [{"measurement": "% inhibition of H+-dependent GlySar uptake (1 mM substrate, 100 µM GlySar, MDCK cells)", "setting": "canine PepT1 (cPepT1) [1]", "result": 100, "unit": "%"}]}
{"molecule": "MetPhe (peptide)", "values": [{"measurement": "% inhibition of H+-dependent GlySar uptake (1 mM substrate, 100 µM GlySar, MDCK cells)", "setting": "canine PepT1 (cPepT1) [1]", "result": 100, "unit": "%"}]}
{"molecule": "TrpGlyGly (peptide)", "values": [{"measurement": "% inhibition of H+-dependent GlySar uptake (1 mM substrate, 100 µM GlySar, MDCK cells)", "setting": "canine PepT1 (cPepT1) [1]", "result": 33, "unit": "%"}, {"measurement": "inhibition of 100 µM GlySar uptake by 1 mM peptide, MDCK cells", "setting": "canine PepT1 (cPepT1) [1]", "result": 73, "unit": "%"}]}
{"molecule": "TrpLeu (peptide)", "values": [{"measurement": "Ki", "setting": "canine PepT1 (cPepT1) [2]", "result": 200, "unit": "nM"}, {"measurement": "% inhibition of H+-dependent GlySar uptake (100 µM substrate, 100 µM GlySar, MDCK cells; Leu-containing peptides experiment)", "setting": "canine PepT1 (cPepT1) [1]", "result": 94, "unit": "%"}, {"measurement": "% inhibition of H+-dependent GlySar uptake (100 µM substrate, 100 µM GlySar, MDCK cells; Trp-containing peptides experiment)", "setting": "canine PepT1 (cPepT1) [1]", "result": 92, "unit": "%"}, {"measurement": "% inhibition of H+-dependent GlySar uptake (1 mM substrate, 100 µM GlySar, MDCK cells)", "setting": "canine PepT1 (cPepT1) [1]", "result": 116, "unit": "%"}, {"measurement": "% inhibition of pH 6.0 uptake, 10 mM competitor, collagen", "setting": "canine PepT1 (cPepT1) [1]", "result": 8, "unit": "%"}, {"measurement": "% inhibition of pH 6.0 uptake, 10 mM competitor, poly-L-lysine", "setting": "canine PepT1 (cPepT1) [1]", "result": 8.1, "unit": "%"}, {"measurement": "Glysylsarcosine uptake, pH 6.0, with 10 mM competitor, MDCK cells on collagen (pmol 30 min^-1 mg^-1 protein)", "setting": "canine PepT1 (cPepT1) [1]", "result": 5.21}, {"measurement": "Glysylsarcosine uptake, pH 6.0, with 10 mM competitor, MDCK cells on poly-L-lysine (pmol 30 min^-1 mg^-1 protein)", "setting": "canine PepT1 (cPepT1) [1]", "result": 3.44}, {"measurement": "inhibition of H+-dependent 100 µM GlySar uptake by 1 mM peptide, MDCK cells", "setting": "canine PepT1 (cPepT1) [1]", "result": 117, "unit": "%"}, {"measurement": "inhibition of H+-dependent GlySar uptake by 10 mM peptide, MDCK cells on collagen", "setting": "canine PepT1 (cPepT1) [1]", "result": 92, "unit": "%"}, {"measurement": "inhibition of H+-dependent GlySar uptake by 10 mM peptide, MDCK cells on poly-L-lysine", "setting": "canine PepT1 (cPepT1) [1]", "result": 92, "unit": "%"}]}
{"molecule": "TrpTrp (peptide)", "values": [{"measurement": "Ki", "setting": "canine PepT1 (cPepT1) [2]", "result": 750, "unit": "nM"}, {"measurement": "% inhibition of H+-dependent GlySar uptake (100 µM substrate, 100 µM GlySar, MDCK cells; Trp-containing peptides experiment)", "setting": "canine PepT1 (cPepT1) [1]", "result": 62, "unit": "%"}, {"measurement": "% inhibition of H+-dependent GlySar uptake (1 mM substrate, 100 µM GlySar, MDCK cells)", "setting": "canine PepT1 (cPepT1) [1]", "result": 119, "unit": "%"}]}
{"molecule": "glycylsarcosine (GlySar) (peptide)", "values": [{"measurement": "Km of H+-dependent GlySar uptake by MDCK cells (FIG. 12 legend)", "setting": "canine PepT1 (cPepT1) [1]", "result": 1, "unit": "mM"}, {"measurement": "apparent Km of H+-dependent GlySar uptake by MDCK cells grown in LHM", "setting": "canine PepT1 (cPepT1) [1]", "result": 1.1, "unit": "mM"}, {"measurement": "apparent Km of total GlySar uptake by confluent MDCK cells, pH 6.0", "setting": "canine PepT1 (cPepT1) [1]", "result": 4, "unit": "mM"}, {"measurement": "self-inhibition of 100 µM GlySar uptake by 1 mM GlySar, MDCK cells", "setting": "canine PepT1 (cPepT1) [1]", "result": 64, "unit": "%"}]}
{"molecule": "LW", "note": "[LeuTrp]", "values": [{"measurement": "inhibition of H+-dependent 100 µM GlySar uptake by 1 mM peptide, MDCK cells", "setting": "canine PepT1 (cPepT1) [3]", "result": 114, "unit": "%"}, {"measurement": "% inhibition of H+-dependent GlySar uptake (1 mM substrate, 100 µM GlySar, MDCK cells)", "setting": "canine PepT1 (cPepT1) [4]", "result": 113, "unit": "%"}]}
{"molecule": "[βAla]-His", "note": "[Carnosine (β-AlaHis)]", "values": [{"measurement": "% inhibition of H+-dependent GlySar uptake (1 mM substrate, 100 µM GlySar, MDCK cells)", "setting": "canine PepT1 (cPepT1) [4]", "result": 50, "unit": "%"}]}
{"molecule": "MGMM", "note": "[MetGlyMetMet (SEQ ID NO:10)]", "values": [{"measurement": "% inhibition of H+-dependent GlySar uptake (1 mM substrate, 100 µM GlySar, MDCK cells)", "setting": "canine PepT1 (cPepT1) [4]", "result": 50, "unit": "%"}]}
{"molecule": "GGGGG", "note": "[[Gly]5]", "values": [{"measurement": "inhibition of H+-dependent 100 µM GlySar uptake by 1 mM peptide, MDCK cells", "setting": "canine PepT1 (cPepT1) [3]", "result": 7.3, "unit": "%"}, {"measurement": "% inhibition of H+-dependent GlySar uptake (1 mM substrate, 100 µM GlySar, MDCK cells)", "setting": "canine PepT1 (cPepT1) [4]", "result": 9, "unit": "%"}]}
{"molecule": "GGGG", "note": "[[Gly]4]", "values": [{"measurement": "inhibition of H+-dependent 100 µM GlySar uptake by 1 mM peptide, MDCK cells", "setting": "canine PepT1 (cPepT1) [3]", "result": 23, "unit": "%"}, {"measurement": "% inhibition of H+-dependent GlySar uptake (1 mM substrate, 100 µM GlySar, MDCK cells)", "setting": "canine PepT1 (cPepT1) [4]", "result": 19, "unit": "%"}]}
